The results in this text go back to article doi:10.1101/2022.11.26.518022 (bioRxiv, 2022).

The target of one experiment is T1, Unr CSD789 (A756-D990) (Drosophila, UniProt B7Z0E2 756-990).
T1 sequence (looked up): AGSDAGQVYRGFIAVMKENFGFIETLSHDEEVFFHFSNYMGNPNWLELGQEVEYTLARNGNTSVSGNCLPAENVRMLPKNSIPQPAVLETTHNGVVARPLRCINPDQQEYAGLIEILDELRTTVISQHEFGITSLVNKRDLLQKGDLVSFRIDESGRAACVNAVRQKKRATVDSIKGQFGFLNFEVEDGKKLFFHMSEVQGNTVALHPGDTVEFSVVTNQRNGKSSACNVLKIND
Briefly: NMR titration.

The target in the next experiment is T2, Unr CSD78 (A756-K922) (Drosophila, UniProt B7Z0E2 756-922).
T2 sequence (looked up): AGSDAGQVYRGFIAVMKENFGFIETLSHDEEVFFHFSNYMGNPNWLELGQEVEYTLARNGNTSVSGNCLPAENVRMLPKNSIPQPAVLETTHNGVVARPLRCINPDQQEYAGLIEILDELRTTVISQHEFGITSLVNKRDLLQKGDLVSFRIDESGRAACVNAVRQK
In words: NMR titration.

B1: pAbp RRM3 (G176-A263) (domain or fragment)
chain: not shown
Consider B1, for which the binding result with Unr CSD789 (A756-D990) and with Unr CSD78 (A756-K922) was “binds” in each case.
